The values that follow come from patent publication US20230295345A1 (published 2023).

Experiment [1] addresses T1, cynomolgus monkey TMPRSS6 expressed on HEK293T cells (CynoTMPRSS6-(His)6) (cynomolgus monkey, UniProt Q8IU80 10-811 (human entry)).
T1 chain: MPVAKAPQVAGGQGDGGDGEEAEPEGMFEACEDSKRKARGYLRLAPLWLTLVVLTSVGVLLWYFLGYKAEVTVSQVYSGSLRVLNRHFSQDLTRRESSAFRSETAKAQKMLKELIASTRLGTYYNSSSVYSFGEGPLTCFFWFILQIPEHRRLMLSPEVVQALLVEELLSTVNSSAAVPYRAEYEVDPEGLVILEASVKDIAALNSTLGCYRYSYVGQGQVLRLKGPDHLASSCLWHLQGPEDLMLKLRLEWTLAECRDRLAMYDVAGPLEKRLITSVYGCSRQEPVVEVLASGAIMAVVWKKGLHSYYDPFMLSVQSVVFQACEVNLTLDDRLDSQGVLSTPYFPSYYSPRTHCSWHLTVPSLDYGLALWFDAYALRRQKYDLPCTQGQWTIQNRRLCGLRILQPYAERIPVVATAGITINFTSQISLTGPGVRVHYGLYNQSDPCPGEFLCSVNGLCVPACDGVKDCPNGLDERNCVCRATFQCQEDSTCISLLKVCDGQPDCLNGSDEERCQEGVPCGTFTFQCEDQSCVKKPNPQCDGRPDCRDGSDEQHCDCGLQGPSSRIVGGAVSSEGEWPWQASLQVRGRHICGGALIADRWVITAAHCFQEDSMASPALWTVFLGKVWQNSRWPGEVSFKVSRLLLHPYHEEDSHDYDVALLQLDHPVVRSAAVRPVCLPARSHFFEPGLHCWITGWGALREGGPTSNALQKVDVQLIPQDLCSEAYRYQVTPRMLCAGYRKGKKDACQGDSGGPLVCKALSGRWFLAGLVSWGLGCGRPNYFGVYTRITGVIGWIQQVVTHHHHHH
The experiment in a line: cell surface ELISA on fixed HEK293T cells expressing cynomolgus monkey TMPRSS6. The protocol:
HEK293T cells stably expressing mouse TMPRSS6 (generated by LakePharma Inc as described above, FIGS. 4J, 4L, 4N, 4P, 4R, 4T) or cynomolgus monkey (generated in house as described above, FIGS. 4K, 4M, 4O, 4Q, 4S, 4U) were fixed with methanol (100%), and washed with dPBS (Dulbecco’s phosphate-buffered saline, Corning Cellgro) before incubation with various concentrations of anti-TMPRSS6 antibodies and their humanized variants diluted in BSA medium (DMEM + 1% Pen/Strep + 10 mM HEPES + 1 mg/ml BSA (Sigma-Aldrich)). Purified mouse IgG (FIGS. 4J-4O) or Human IgG1 (FIGS. 4P-4U) was used as a control. After incubation, cells were washed with BSA medium and then incubated with goat anti-mouse (Invitrogen, FIGS. 4J-4O) or anti-human (Millipore, FIGS. 4P-4U) IgG conjugated with HRP as a 2° antibody. Finally, cells were washed with dPBS to remove unbound antibody and color developed with ELISA liquid substrate (Sigma-Aldrich), followed by stopping the reaction with addition of the same volume of ELISA liquid substrate of 1 M H₂SO₄. Bound antibody was measured by absorbance at OD₄₅₀ₙₘ.

For experiment [2], the target named is T1, cynomolgus monkey TMPRSS6 expressed on …. The experiment in a line: FACS on HEK293T cells transiently expressing cynomolgus monkey TMPRSS6. The procedure:
(§1) Selected anti-TMPRSS6 antibodies were tested to determine whether any are capable of binding to TMPRSS6 from mouse and/or cynomolgus monkey. HEK293T cells stably expressing human TMPRSS6 (HuTMPRSS6-(His)₆) (generated by LakePharma Inc as described above), HEK293T cells stably expressing mouse TMPRSS6 (MoTMPRSS6-(His)₆) (SEQ ID NO: 98) (generated by LakePharma Inc as described above) and HEK293T cells transiently expressing cynomolgus monkey TMPRSS6 (CynoTMPRSS6-(His)₆) (SEQ ID NO: 99) (generated in house) were collected. HEK293T cells stably expressing human TMPRSS6 were used as a positive control and HEK293T cells were used as a negative control (as described above). Cells were blocked with dPBS + 3% BSA before incubation with anti-TMPRSS6 antibodies diluted in dPBS + 3% BSA. After incubation, cells were washed with dPBS and followed by another incubation with goat anti-mouse IgG conjugated with AlexaFluor-488 as a 2° antibody (Invitrogen). At last, cells were washed with dPBS to remove unbound antibody, re-suspended with dPBS + 1 mM EDTA, and then subjected to FACS analysis using a NOVOCYTE® Flow Cytometer (ACEA Biosciences, Inc., San Diego CA). Bound antibody was determined by excitation at 488 nm and measurement of emission (FITC-A) at 530 nm. Results for these assays are shown in histogram plots in FIGS. 4A-4I.

The target of experiment [3] is T2, mouse TMPRSS6 expressed on HEK293T cells (MoTMPRSS6-(His)6) (mouse, UniProt Q9DBI0 1-811).
T2 construct: stably expressed in HEK293T cells; also called murine TMPRSS6
T2 sequence: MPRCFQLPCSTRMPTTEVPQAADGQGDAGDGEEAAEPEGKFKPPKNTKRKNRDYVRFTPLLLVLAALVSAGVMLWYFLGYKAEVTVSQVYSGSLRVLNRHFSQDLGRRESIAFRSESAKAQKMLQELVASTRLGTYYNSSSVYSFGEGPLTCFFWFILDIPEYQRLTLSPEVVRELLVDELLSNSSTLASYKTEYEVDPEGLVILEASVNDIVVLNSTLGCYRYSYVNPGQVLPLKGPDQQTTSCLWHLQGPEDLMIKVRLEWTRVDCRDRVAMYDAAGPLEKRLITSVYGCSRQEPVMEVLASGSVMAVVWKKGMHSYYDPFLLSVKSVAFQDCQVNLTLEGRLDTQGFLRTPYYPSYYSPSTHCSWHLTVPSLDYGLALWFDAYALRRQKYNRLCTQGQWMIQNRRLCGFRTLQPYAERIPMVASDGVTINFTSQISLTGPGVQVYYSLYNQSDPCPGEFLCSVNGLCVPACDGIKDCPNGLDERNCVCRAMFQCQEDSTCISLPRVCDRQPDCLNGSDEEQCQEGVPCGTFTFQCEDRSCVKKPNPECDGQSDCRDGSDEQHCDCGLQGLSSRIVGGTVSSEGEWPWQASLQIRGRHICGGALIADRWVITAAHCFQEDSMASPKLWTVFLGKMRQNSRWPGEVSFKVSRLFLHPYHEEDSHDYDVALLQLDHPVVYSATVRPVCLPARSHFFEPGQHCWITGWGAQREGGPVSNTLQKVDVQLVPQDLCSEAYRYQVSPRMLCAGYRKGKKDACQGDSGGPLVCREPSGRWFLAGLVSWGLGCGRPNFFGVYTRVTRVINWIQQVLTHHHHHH
The experiment in a line: FACS on HEK293T cells stably expressing mouse TMPRSS6. The procedure: as §1

B1: hzMWTx-003Var anti-TMPRSS6 antibody (antibody, human IgG1, kappa, L234A L235A, V domains shown)
VH: QVQLVQSGAEVKKPGASVKVSCKASGFNIEDYYMHWVRQAPGQRLEWMGRIDPEDAETTYSPKFQGRVTIIPDTSANTAYMELSSLRSEDTAVYYCARSIYLDPMDYWGQGTLVTVSS
VL: DIQMTQSPKSLSASVGDRVTITCRASQDVTTALAWYQQKPGQSPKLLIYWATTRHSGVPSRFSGSGSGTDFTLTISSLQPEDFATYYCQQHYSTPYTFGQGTKLEIKR
notes: Humanized variant of MWTx-003, human IgG1/kappa
On to B1, for which the binding result in experiment [1] was “binds”.

B2: hzMWTx-001Var anti-TMPRSS6 antibody (antibody, human IgG1, kappa, N297A, V domains shown)
VH: EVQLVQSGAEVKKPGASVKVSCKASGYTFTSYWITWVRQAPGQRLEWIGNIYPGSGSTYYNEKFKSKATITRDTSSRTAYMELSSLRSEDTAVYYCAPYDADYAMDYWGQGTLVTVSS
VL: DIQMTQSPSSLSASVGDRVTITCKASQDISNYLSWFQQKPGKAPKLLIYRANRLVEGVPSRFSGSGSGTDFTLTISSLQPEDFATYFCLQYDEFPLTFGGGTKVEIKR
notes: Humanized variant of MWTx-001, human IgG1/kappa
Consider B2, for which, in experiment [1], the binding result is “binds”.

B3: MWTx-003 anti-TMPRSS6 antibody (antibody, mouse IgG2b, kappa, V domains shown)
VH: EVQLQQSGAELVKPGASVKLSCTASGFNIEDYYIHWVKERTEQGLEWIGRIDPEDGETTYAPQFQGKATIIPDTSSNTAYMQLSSLTSEDAAVYYCARSIYLDPMDYWGQGTSVTVSS
VL: DIVMTQSHKFMSTSVGDRVSITCKASQDVTTAVAWYQQKPGQSPKILIYWATTRHTGVPDRFTGSISGTTYILTISSVQAEDLALYYCQQHYSTPYTFGGGTKLEIKR
notes: Mouse monoclonal antibody from a hybridoma (ATCC PTA-126761); also called r4K12B (recombinantly expressed version, same HC and LC)
As for B3, the binding result in experiment [2] is recorded as “binds”.

B4: hzMWTx-002Var anti-TMPRSS6 antibody (antibody, human IgG1, kappa, N297A, V domains shown)
VH: EVQLVQSGAEVKKPGASVKVSCKASGFNIKDYYIHWVRQATGQGLEWMGRIDPEDAESEYAPKFQGRVTITADTSTDTAYMELSSLRSEDTAVYYCTRGDSMMVTYFDYWGQGTLVTVSS
VL: DIQMTQSPSSLSASVGDRVTITCKASQDVSTAVAWYQQKPGKAPKLLIYWAFTRHTGVPSRFSGSGSGTDYALTISSLQPEDFATYYCQQHYRSPWTFGGGTKVEIKR
notes: Humanized variant of MWTx-002, human IgG1/kappa
In the case of B4, the binding result in experiment [1] is on record as “binds”.

B5: MWTx-001 anti-TMPRSS6 antibody (antibody, mouse IgG2a, kappa, V domains shown)
VH: QVQLQQPGAELAKPGASVKMSCKASGYTFTSYWITWVKQRPGQDLEWIGNIYPGSGSTYYNEKFKSKATLTVDTSSRTAYMQLSSLTSADSAVYYCAPYDSDYAMDYWGQGTSVTVSS
VL: DIKMTQSPSSMYASLGERVTITCKASQDINNYLSWFQQKPGKSPKTLIYRANRLVDGVPSRVSGSGSGQDYSLTISSLEYEDVGIYFCLQYDEFPLTFGAGTKLELKR
notes: Mouse monoclonal antibody from a hybridoma (ATCC PTA-126759)
As for B5, in experiment [1], the binding result is given as “binds”.

B6: MWTx-002 anti-TMPRSS6 antibody (antibody, mouse IgG2b, kappa, V domains shown)
VH: EVQLQQSGAELVKPGASVKLSCTASGFNIKDYYIHWVKERTEQGLEWFGRIDPEDGESEYAPKFQGKATLTADTSSNTAYLQLSSLTSEDTAVYYCTRGDSMMVTYFDYWGQGTTLTVSS
VL: DIVMTQSHKFMSTSVGDRVSITCKASQDVSTAVAWYQQKPGQSPKLLIYWAFTRHTGVPDRFTSTGSGTDYALTISSVQAEDLALYYCQQHYRSPWTFGGGTKLEIKR
notes: Mouse monoclonal antibody from a hybridoma (ATCC PTA-126760)
On to B6, for which the binding result in experiment [3] is “no binding”; in experiment [1], “binds”.
